The source of these data is the supplement of paper PMC9112550, “Optimization of the antimicrobial peptide Bac7 by deep mutational scanning” (BMC Biology, 2022).

For the data set, the system named is Escherichia coli TOP10. Kind of data set: shrunken log2 fold change of peptide-encoding DNA abundance (4.5 h post-induction vs induction); higher = less antimicrobial activity (less host growth inhibition). Particulars: time post-induction: 4.5 h; library: site-saturation at positions 5, 18, 19, 20.
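Also: peptides expressed intracellularly from a pBAD plasmid library in pooled LB shake-flask culture, induced with 0.3% L-arabinose, DNA abundance read by NGS, three biological replicates, DESeq2 with apeglm shrinkage.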

With RRIRPRPPRLPRPRPRPNLIPRP, the “shrunken log2 fold change” value is -0.203.
RRIRFRPPRLPRPRPRPPSRPRP: the “shrunken log2 fold change” value is 0.551.
With RRIRWRPPRLPRPRPRPYFWPRP, the “shrunken log2 fold change” value is -0.222.
On to RRIRTRPPRLPRPRPRPHDHPRP, for which the “shrunken log2 fold change” value was -0.257.
As for RRIRLRPPRLPRPRPRPGGVPRP, the “shrunken log2 fold change” value is 0.0323.
As for RRIRKRPPRLPRPRPRPKSHPRP, the “shrunken log2 fold change” value was determined as 0.0104.
With RRIRYRPPRLPRPRPRPRQRPRP, the “shrunken log2 fold change” value worked out at 0.194.
As for RRIRWRPPRLPRPRPRPCKNPRP, the “shrunken log2 fold change” value was -0.0451.
With RRIRSRPPRLPRPRPRPMMTPRP, the “shrunken log2 fold change” value was -0.0968.
Take RRIRKRPPRLPRPRPRPFNLPRP: the “shrunken log2 fold change” value is -0.0494.
As for RRIRMRPPRLPRPRPRPYLTPRP, the “shrunken log2 fold change” value was -0.268.
For RRIRVRPPRLPRPRPRPLRTPRP, the “shrunken log2 fold change” value came to 0.246.
With RRIRNRPPRLPRPRPRPRVAPRP the figure was 0.111; with RRIRWRPPRLPRPRPRPHAIPRP, -0.124.
For the sequence RRIRCRPPRLPRPRPRPDVFPRP, the “shrunken log2 fold change” value is -0.151.
RRIRCRPPRLPRPRPRPNQHPRP: the “shrunken log2 fold change” value is -0.337.
In the case of RRIRPRPPRLPRPRPRPEKCPRP, the “shrunken log2 fold change” value is 0.156.
Take RRIRMRPPRLPRPRPRPQFQPRP: the “shrunken log2 fold change” value was -0.165.
Take RRIRFRPPRLPRPRPRPDICPRP: the “shrunken log2 fold change” value is -0.0857.
Turning to RRIRARPPRLPRPRPRPMVMPRP, the “shrunken log2 fold change” value was -0.00579.
As for RRIRVRPPRLPRPRPRPHPDPRP, the “shrunken log2 fold change” value is 0.015.
The figure for RRIRVRPPRLPRPRPRPWIRPRP is -0.151; for RRIRNRPPRLPRPRPRPKAYPRP it is 0.0121; for RRIRFRPPRLPRPRPRPPANPRP it is 0.858.
For RRIRQRPPRLPRPRPRPVRAPRP, the “shrunken log2 fold change” value turned out to be 0.38.
For the sequence RRIRTRPPRLPRPRPRPRHKPRP, the “shrunken log2 fold change” value is 0.123.
As for RRIRPRPPRLPRPRPRPDRDPRP, the “shrunken log2 fold change” value is -0.0875.
With RRIRIRPPRLPRPRPRPGNMPRP the figure was -0.105; with RRIRGRPPRLPRPRPRPIMWPRP, 0.39.
As for RRIRDRPPRLPRPRPRPTEYPRP, the “shrunken log2 fold change” value was -0.154.
For RRIRSRPPRLPRPRPRPYALPRP, the “shrunken log2 fold change” value was -0.613.
With RRIRTRPPRLPRPRPRPAGHPRP the figure was -0.0189; with RRIRIRPPRLPRPRPRPDQWPRP, 0.0363; with RRIRLRPPRLPRPRPRPFPHPRP, -0.0537.
On to RRIRMRPPRLPRPRPRPATPPRP, for which the “shrunken log2 fold change” value is 1.24.
With RRIRLRPPRLPRPRPRPHYSPRP the figure was -0.246; with RRIRFRPPRLPRPRPRPWRRPRP, 0.0103.
Regarding RRIRYRPPRLPRPRPRPMHMPRP, the “shrunken log2 fold change” value was -0.113.
On to RRIRQRPPRLPRPRPRPQQNPRP, for which the “shrunken log2 fold change” value is -0.0678.
As to RRIRKRPPRLPRPRPRPVMYPRP, the “shrunken log2 fold change” value was -0.144.
Take RRIRARPPRLPRPRPRPGDRPRP: the “shrunken log2 fold change” value is -0.00146.
As for RRIRNRPPRLPRPRPRPNQCPRP, the “shrunken log2 fold change” value is -0.136.
As for RRIRERPPRLPRPRPRPEHVPRP, the “shrunken log2 fold change” value is -0.017.
On to RRIRRRPPRLPRPRPRPTQQPRP, for which the “shrunken log2 fold change” value is 0.707.
With RRIRIRPPRLPRPRPRPESQPRP the figure was 0.0553; with RRIRPRPPRLPRPRPRPETPPRP, 0.152.
For the sequence RRIRRRPPRLPRPRPRPTGMPRP, the “shrunken log2 fold change” value was determined as 0.906.
As to RRIRVRPPRLPRPRPRPDSFPRP, the “shrunken log2 fold change” value is -0.0784.
Turning to RRIRARPPRLPRPRPRPLRDPRP, the “shrunken log2 fold change” value stood at 0.948.
Consider RRIRHRPPRLPRPRPRPKVAPRP, for which the “shrunken log2 fold change” value is -0.049.
